# Measurements from the supplement of paper PMC7877785.
# ± gives the uncertainty stated by the source.
# Experiment: self-splicing fitness, log relative to wild type (ln ratio); higher = more splicing; Tetrahymena group I intron in knt gene, E. coli kanamycin selection, DiMSum; sequences stand for … in CUCUCU…GGAGGGAAAAGUUAUCAGGCAUGCACCUGGUAGCUAGUCUUUAAACCAAUAGAUUGCAUCGGUUUAAAAGGCAAGACCGUCAAAUUGCGGGAAAGGGGUCAACAGCCGUUCAGUACCAAGUCUCAGGGGAAACUUUGAGAUGGCCUUGCAAAGGGUAUGGUAAUAAGCUGACGGACAUGGUCCUAACCACGCAGCCAAGUCCUAAGUCAACAGAUCUUCUGUUGAUAUGGAUGCAGUUCACAGACUAAAUGUCGGUCGGGGAAGAUGUAUUCUUCUCAUAAGAUAUAGUCGGACCUCUCCUUAAUGGGAGCUAGCGGAUGAAGUGAUGCAACACUGGAGCCGCUGGGAACUAAUUUGUAUGCGAAAGUAUAUUGAUUAGUUUUGGAGUACUCGUGGUCG
# Outline: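 The eight P1ex-region nucleotides of an intron in the knt kanamycin-resistance gene on pET-22b(+) were all randomised and the library put into E. coli BL21(DE3). Six replicate transformations were grown overnight at 37°C or 30°C on LB agar with or without 25 μg/mL kanamycin, together with 100 μg/mL carbenicillin, 50 μM IPTG and 0.2% rhamnose. Colonies were pooled and amplicon-sequenced on an Illumina HiSeq 2500. Fitness from DiMSum is the error-weighted combination of wild-type-normalised replicate fold changes, kanamycin over none.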
Sequence,self-splicing fitness (ln) (30 °C),self-splicing fitness (ln) (37 °C)
GCAAAGCAAUAUUACGAUUC,-1.26 ± 0.082,-0.245 ± 0.1
AAAUAGCAAUAUUACGACUA,-0.367 ± 0.12,0.06 ± 0.13
GCACAGCAAUAUUACGCAUU,-0.442 ± 0.064,0.276 ± 0.078
AUAAAGCAAUAUUACGUCCU,0.13 ± 0.054,0.82 ± 0.079
GGCCAGCAAUAUUACGUGGA,-4.07 ± 0.25,-2.49 ± 0.17
UGUUAGCAAUAUUACGUGAA,-2.38 ± 0.16,-1.07 ± 0.13
GUGGAGCAAUAUUACGCGUA,-2.14 ± 0.36,-0.34 ± 0.25
GCCCAGCAAUAUUACGGCGA,-0.6 ± 0.082,-0.337 ± 0.1
UGUAAGCAAUAUUACGAUCC,-1.49 ± 0.34,-0.943 ± 0.42
AGAUAGCAAUAUUACGUAGA,-3.03 ± 0.15,-1.77 ± 0.16
AAGUAGCAAUAUUACGUCUC,-1.59 ± 0.12,-0.405 ± 0.14
GGGAAGCAAUAUUACGCCUA,-0.134 ± 0.2,-0.887 ± 0.28
AUGAAGCAAUAUUACGUGAG,-1.27 ± 0.083,-0.0834 ± 0.12
UGAAAGCAAUAUUACGAUGA,-0.217 ± 0.088,-0.415 ± 0.1
AAAGAGCAAUAUUACGUAAC,-3.77 ± 0.31,-2.88 ± 0.43
CAGGAGCAAUAUUACGAUCA,-1.84 ± 0.16,-2.74 ± 0.28
GCCCAGCAAUAUUACGCAAC,-2.19 ± 0.091,-0.000822 ± 0.095
GCCGAGCAAUAUUACGCUCG,-2.94 ± 0.27,-2.02 ± 0.26
UGCCAGCAAUAUUACGAUUC,-2.68 ± 0.18,-2.41 ± 0.3
UAUAAGCAAUAUUACGUAGG,-3 ± 0.27,-0.609 ± 0.27
UACAAGCAAUAUUACGUGCG,-1.05 ± 0.054,-0.158 ± 0.075

Sequence,self-splicing fitness (ln) (30 °C),self-splicing fitness (ln) (37 °C)
CCCAAGCAAUAUUACGCUCU,-3.91 ± 0.26,-2.16 ± 0.18
GACCAGCAAUAUUACGCUUU,-0.00419 ± 0.078,-0.213 ± 0.1
GACAAGCAAUAUUACGUUCU,-2.9 ± 0.13,-1.45 ± 0.12
ACGAAGCAAUAUUACGCGUA,-1.27 ± 0.11,-0.335 ± 0.084
GAACAGCAAUAUUACGUAAC,-1.12 ± 0.082,-0.127 ± 0.1
UGGGAGCAAUAUUACGUACG,-2.41 ± 0.26,-2.34 ± 0.21
UAAAAGCAAUAUUACGUGAG,-0.888 ± 0.044,-0.622 ± 0.078
UCGUAGCAAUAUUACGCUCU,-3.62 ± 0.32,-0.606 ± 0.18
CAUUAGCAAUAUUACGGUCU,-3.48 ± 0.31,-2.22 ± 0.29
AGAUAGCAAUAUUACGGCUG,-0.377 ± 0.12,-0.792 ± 0.2
AAGUAGCAAUAUUACGUCGA,-1.34 ± 0.1,-1.07 ± 0.11
UAUGAGCAAUAUUACGUGCC,-4.14 ± 0.46,-2.28 ± 0.31
GACCAGCAAUAUUACGUCAG,-4.79 ± 0.32,-2.85 ± 0.27
CGACAGCAAUAUUACGUGUG,-2.2 ± 0.067,-1.1 ± 0.07
AGAUAGCAAUAUUACGGGAA,-3 ± 0.27,-2.7 ± 0.25
CCGCAGCAAUAUUACGUGUG,-3.24 ± 0.11,-1.79 ± 0.094
UUCCAGCAAUAUUACGUCUU,-2.64 ± 0.15,-2.27 ± 0.2
CGAUAGCAAUAUUACGUCUA,-1.89 ± 0.13,-0.377 ± 0.11
AUUCAGCAAUAUUACGGUAU,-0.934 ± 0.065,-0.155 ± 0.073
GGGAAGCAAUAUUACGAUCU,-0.627 ± 0.27,-0.134 ± 0.24
AAUGAGCAAUAUUACGGGCG,,-3.07 ± 0.47
